Assay: yeast display, Sf9 membrane polyspecificity reagent, FACS + sequencing; frameworks hold sequencing errors
How it was run: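 Polyreactivity labels are assigned by the sorting gate from which each nanobody was recovered. The gates were low and high (top ~1%), set on anti-HA fluorescence for expression and streptavidin fluorescence for reagent binding. Before sorting, galactose-induced (36–48 hours) yeast display cells were stained for 1 hour at 4 °C with 10% biotinylated, detergent-solubilized Sf9 membrane reagent.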

Sequence | polyreactivity (PSR sort gate)
QVQLEESGGCLVQAGGSLRLICAASGSTFDANAMGWYRQAPGKERELVATISDGGSTNYADSVKGRFTISRDNAKNTVYLQMNSLKPEDTSVYYCAALWYYGGKSACPGGGYWGQGTQVTVSS | low polyreactivity
QVQLEESGGCLVQEGGSLRLSCAASGIIFTSNTLGWYRQAPGKEREFVASINWNGSSTYADSVKGRFTISRDNAKNTVYLQMNSLKPEDTAVYYCNADYNRNSVQFSLYDYWGQGTQVTVSS | low polyreactivity
QVQLEESGGGIVQAGGSLRLSCAASGSIIILYAMGWSRQAPGKEREFVAAITWSGGSTYYADSVKGRFTISRDNAKNTVYLQMNSLKPEDTAVYYCAARIRTVAHVDYDYWGQGTQVTVSS | high polyreactivity
QVQLEESGGGLDQAGGSLRLNCAASGLISVYYVRGWYIQAPGKELELVAAINRSGGNTYYADSVKGRFTISRDNAQNTVNLQMNRLKPDVTAVYYCKASLYFYRYGHDYESDYWGQGTQVTVSS | high polyreactivity
QVQLEESGGGLFQAGGSLRLICAASGRICDVNAMGWYRQAPGKERELVAAISWSGGITYYADSVKGRFTISRDNAKNTVYLQMNSLKPEDTAVYYCAADKYQGYTFYQGYPGGGGYWGQGTQVTVSS | low polyreactivity
QVQLEESGGGLFQAGGSLRLSCAASGLNFGQNVMGWYRQAPGKERELLAAIRESGGRTYYADSVKGRFTISRDNAKNTFYIQMNSLNPEDTAVYYCRAYWRYSRYDYWGQGTQVTGSS | high polyreactivity
QVQLEESGGGLFQAGGSLRLSCAASGRIFDPYAMGWYRQAPGKERDLVATITLRGGITYYADSVKGRFTISRDNAKNTVYLQMNSLKPEDTAVYYCAKKVRSYVRWEYDYWGQGTQVTVSS | low polyreactivity
QVQLEESGGGLVQAGGILRFSCAASGYTFRGYAMGWYRQAPGKEREFVAAIRNSGDSSYYADSVKGRFTISRDNAKNTVYLQRHSLKPEDTAVYYSAAYSRSSKYDYWGQGSQVTVSS | low polyreactivity
QVQLEESGGGLVQAGGILRLSCAASGFIIRRNALGLYRKAAGQERELVATIRASGGRTYYADSVKGRFTISRDNAKNTVYLQMNSVKPEDTAVYYCAAFRWYKPHDYWGQGTQVTVSS | high polyreactivity
QVQLEESGGGLVQAGGRLRLSCAASGPIFGYYAMGWYRQAPGKERELVAGIDWSGGNTYYADSVKGRFTISRDNAKYTVYLQMNSLKPEDTAVYYCNTEGGRDTAWYDYWGQGTQVTVSS | low polyreactivity
QVQLEESGGGLVQAGGRLRLSCAASGSIFYVYAMGWYRQAPGKERELVASINKSGGSTYFADSVKGRFTISRDNAKNTVYLQMNSLKPEDTAVYYCAARTGWPRVGFQYPAHVGFDYWGQGTQVTVSS | low polyreactivity
QVQLEESGGGLVQAGGRLRLTCAASGLTFYANAMGWYRQAPGKERELVATISVGTDSTNYADSVKGRFTISRDNAKNTVYLQMTSMKPEDTAVYYCKALYEEYYAQDPYDYWGQGTQVTVSS | high polyreactivity
QVQLEESGGGLVQAGGSHRLSCAASGITFSLYAMGWYRQAPGKERELVATIDSGGSTNYADSVKGRFTISRDNAKNTVYLQMNSLIPEDTAVYYCAADGVWYYYDMDYWGQGTQVTVSS | low polyreactivity
QVQLEESGGGLVQAGGSLRISCAASGLIFRTNAIGWYRQAPGKERELVAAISWSTGSTYYADSVKGRFTISRDNAKNTVYLQMNSLKPEDTAVYYCARTLRWTYRYGYWGQGTQVTVSS | high polyreactivity
QVQLEESGGGLVQAGGSLRISCAASGRTFRRYAMGWYRQAPGKERELVATISRGGSTYYADSVKGRFTISRDNAKNTVYLQMNSLKPEDTAVFYCAAQRQVIYASEENYWGQGTQVTVSS | high polyreactivity
QVQLEESGGGLVQAGGSLRLAVLPPDLPSTLNDMGWYRQAPGKERELVAAITRGGSTNYADSVKGRFTISRDNAKNTVYLQMNSLKPEDTAVYYCAAPYAGWRDGGDYWGQGTQVTVSS | low polyreactivity

Sequence | polyreactivity (PSR sort gate)
QVQLEESGGGLVQAGGSLRLICAASGGTFSYNAMGWYRQAPGKERELVAAISWSGTRTYYADSVKGRFTISRDNEKNTVYLQMNSLKPEDTAVYYCNADSDTPRYDYWGLGTQVTVSS | low polyreactivity
QVQLEESGGGLVQAGGSLRLICAAYGSIIPYNAMGWYRQQPGEFVDAISYSSGSTYYADSVKGRFTISRDNAKNTVYLQMNSLKPEDTAVYYCAAGSWYPPSYVWLRRYDYWGQGTQVTVSS | low polyreactivity
QVQLEESGGGLVQAGGSLRLSCAASGFIFGPYAMGWYRQAPGKERELVAAMSSSGGSTSYEDSVKGRFTISRDNAKNTVYLQMNSLKPEDTAVYYCAARGRYRLYSNYYDYWGQGTQVNVSS | high polyreactivity
QVQLEESGGGLVQAGGSLRLSCAASGFIFSRYDMGWYRQAPGKERELVAAITSGGSTYYADSVKGRFTISRDNAKNTVYLQMNSLKPEDTAVYYCNAYVRSDYDYWGQGTQVTVSS | high polyreactivity
QVQLEESGGGLVQAGGSLRLSCAASGFIYVKYAMGWYRQAPGKERELVAAITNGGSTYYADSVKGRFTISRDNAKYTVYLQMNSLKPEDTAVYYCAAQYHDWWRRLLYRSFRPFDYWGQGTQVTVSS | low polyreactivity
QVQLEESGGGLVQAGGSLRLSCAASGFNFAAYTMGWNRQAPGKEREWVAGISKRGGTTYYADSVKGRFTISRDNAKNTVYLQMNSLKPEDTAVYYCAASRYVTTSRYQYNHWGQGTQVTVSS | high polyreactivity
QVQLEESGGGLVQAGGSLRLSCAASGFTFGFYAMGWYRQAPGKERELVARISYSGGSTYYADSVKGRFTISRDNAKNTVYLQMNSLKPEDTAVYYCNRGYRRLQEDYWGQGTQVTVSS | high polyreactivity
QVQLEESGGGLVQAGGSLRLSCAASGFTFKRYAMGSYRQAPGKEREFVAAITRGGGSTYYADSVKGRFTISRDNAKNSVYLQMNSLKPEDTAVYYCAADPQYTIRDYWGQGTQVTVSS | high polyreactivity
QVQLEESGGGLVQAGGSLRLSCAASGFTFPTNAMGWYRQAPGKERELVATISLGAGSTHYADSVKGRFTISRDNAKNTVYLQMNSLKPEDTAVYYCAARSRRWYDYDYWGQGTQVTVSS | low polyreactivity
QVQLEESGGGLVQAGGSLRLSCAASGFTFSLYGMGWYRQAPGKERELVAAIRSGGSTNYADSVKGRFTISRDNAKNTVYLQMNSLKPEDTAVYYCATDIHSVNNNRDKHDYDYWGQGTLVTVSS | low polyreactivity
QVQLEESGGGLVQAGGSLRLSCAASGFTFSTNSMGWYRPAPGKERELVAAISRGGSTNYADSVKGRFTISRDNAKNTVYLQMNSLKPEDTAVYYCNAYQSPDEEEYYWGQGTQVTVSS | low polyreactivity
QVQLEESGGGLVQAGGSLRLSCAASGFTFYRDTMGGYRQAPGKERELFAAITRDGSTYYADSVKGRFTISRDNAKYTVSLQLNSLKPEDTAVYYWNARGTVPWYGYDYWGQGTQVNVSS | high polyreactivity
QVQLEESGGGLVQAGGSLRLSCAASGFTFYYYAMGWYRQAPGKERELVAAINTSGGSTYYADSVKGRFTNSRDNAKNTVYLQMNSLKPVDTAVYYCAAVDGFWTQYPRMGYWGQGTQVTVSS | high polyreactivity
QVQLEESGGGLVQAGGSLRLSCAASGGTFGQYTMGWYRQAPGKERELVAAISTRGGSTNYADSVKGRFTISRDNAKNTVYLQMNSLKPEDTAVYYCAAKDKGRYYENVGRRGLDYWGQGTQVTVSS | high polyreactivity
QVQLEESGGGLVQAGGSLRLSCAASGGTFYYSPMGWDREPPGKERELVAAIRWRGGNTYYADSVKGRFTISLDNAKNTVYLQMNSVKPEDTAVYYCAAQTHDYNRYVGTTAYDYWGQGTQVTVSS | low polyreactivity
